Experimental data reported in US20220273823A1, “THERANOSTIC CONJUGATES” (Ariel Scientific Innovations Ltd., priority 2019, published 2022).

How the values were obtained:
SSTRs = experiment: Competitive binding of 5-CLB and free octreotide to PANC-1 receptors (NIR fluorescence imaging); format: cell-based, human; conditions: 5-CLB 10 μM, Oct x1, x3, x10 molar excess, NIR channel, 60 min after incubation
Description: The specificity of 5-CLB towards PANC-1 cell line was supported also by a competitive binding of 5-CLB and commercially available octreotide to the PANC-1 receptors. In a series of experiments, PANC-1 cell line was incubated for 10 min in PBS buffer contained 5% DMSO with a constant concentration of 5-CLB (10 μM) and variable concentration of octreotide (×1, ×3 and ×10 molar excess) and washed out. Then the fluorescence images were taken in the NIR channel in 60 minutes after the incubation.
PANC-1 were incubated for 10 minutes at 37° C. in PB with 5-CLB (10 μM) and increasing concentrations of Oct (xl, x3 and x10 molar excess) and both compounds were washed out. Fluorescence images were taken at 60 min after the incubation and fluorescence intensities remaining in the cells were measured. […] At the next step, the ratiometric fluorescence monitoring of CLB release from the 5-CLB conjugate delivered into the PANC-1, has been conducted. The cells were incubated with 5-CLB for 10 min to allow accumulation of the compound, and fluorescence images were taken over time in two channels. The NIR channel enabled measurements of the signal from IRD dye conjugated with CLB (5-CLB) while the Red channel detected the signal from the RD fluorophore formed upon the CLB release. […]

[1] = Cleavage rates for IRD-CLB and 5-CLB in PB and cell medium (time-dependent emission spectra); format: in vitro ADME; conditions: pH 7.4, incubated at 37° C., read-out: drug release half-life τ1/2 (converted)
Description: (§1) The biodegradable ester linker (BL) in IRD-CLB and 5-CLB can be hydrolyzed to release free CLB and, accordingly, IRD turns into RD, which is accompanied by a noticeable change in the spectral properties. The time-dependent emission spectra were recorded in PB and CM (see, FIGS. 9A-D) using the excitation wavelengths 720 nm and 532 nm. The first one enabled monitoring of the decrease in the concentration of IRD-CLB and 5-CLB, while the second one—the increase in the concentration of RD and OctA-RD. Only the NIR fluorescence of IRD-CLB and 5-CLB was detected, when excited at 720 nm; and only the red fluorescence of RD and OctA-RD was detected, when excited at 532 nm.
Upon the hydrolytic cleavage, the NIR emission band (FNIR) related to IRD decreases and the red emission band (FRed) of RD increases (FIGS. 9A-D). Based on the time-dependent emission spectra, the drug cleavage profiles for IRD-CLB and 5-CLB were obtained (FIG. 9A) and the drug release rates were quantified by the half-lives (τ1/2).
A stock solution of IRD-CLB and 5-CLB in acetonitrile was added to PB 10 mmol buffer pH 7.4 at 25° C. and cell medium pH 7.4, which both contained 20% of acetonitrile. The absorbance of the resulted solutions at the maximum was 0.10±0.01, when measured in a 1-cm standard quartz cell. The solutions were incubated at 37° C. during 24 hours. In certain periods of time fluorescence spectrum was measured.

Panc-1 = experiment: XTT cytotoxicity assay, PANC-1; format: cell-based, human; conditions: PANC-1, 10 min at 37° C., up to 25 μM, washed, XTT at 24 hours
Description: Application of the 5-CLB conjugate equipped with targeting peptide OctA was studied in the TDD monitoring using PANC-1 cancer cell line that overexpress SSTR-2 and SSTR-5 receptors. Efficient delivery of 5-CLB by the conjugated OctA to PANC-1 was verified by the XTT assay. Cytotoxicity of 5-CLB was compared to that of CLB or OctA added separately. The compounds were incubated with cells for 10 min at 37° C. at concentrations up to 25 μM, and subsequently were washed out, and growth inhibition compared to naïve/native cells was assessed in 24 hours.
The cytotoxicity of the peptide-drug conjugates was determined by measuring the mitochondrial enzyme activity, using a commercial XTT assay kit. Panc-1 cell line was cultured in RPMI medium supplemented with 10% heat-inactivated Fetal Bo-vine Serum (FBS), 2 mM glutamine, 1% penicillin and strep-tomycin and cultured at 37° C. in a humidified incubator with 6% CO2. Cells cultures were initiated in microplate wells at a concentration of 2-4×10^4 and the cells were allowed to adhere for 24 hours. […] Absorbance in the wells were measured with a TECAN Infinite M200 ELISA reader at both 480 and 680 nm—the latter being the background absorbance. […]

[2] = Ratiometric fluorescence monitoring of CLB release from 5-CLB in PANC-1; format: cell-based; conditions: human, PANC-1 cells; PANC-1, 10 μM, 10 min incubation, NIR and Red channels; read-out: CLB cleavage half-life τ1/2
Description: The Fluorescent images were acquired by Photometrics CoolSNAP HQ2 camera mounted on an Olympus iX81 fluorescent microscope. For the Red channel a cube comprising a ET560/40x bandpass excitation filter, ET630/75m bandpass emission filter and T5851pxr dichroic filter was used. For the NIR channel a cube comprising a ET740/40x bandpass excitation filter, ET7801p long pass emission filter and T7701pxr dichroic filter was used. To monitor drug release, Panc-1 cell line was grown in six-well culture plates and then washed with PBS (pH 7.4) two times and then incubated 10 minutes with 5-CLB 10 μM solution in PBS (for better solubility PBS with 3% DMSO was used). After incubation, the samples washed thoroughly with PBS (pH 7.4) two times to remove excess conjugate and the fluorescence changes immediately measured by using fluorescent microscope. […]
The band intensities in a representative experiment were quantified by measurement of related fluorescence intensity for each image (via the “Measure” function) with Image J software.
PANC-1 were incubated for 10 minutes at 37° C. in PB with 5-CLB (10 μM) and increasing concentrations of Oct (xl, x3 and x10 molar excess) and both compounds were washed out. Fluorescence images were taken at 60 min after the incubation and fluorescence intensities remaining in the cells were measured. […]

[3] = Spectral properties of RD, IRD-CLB and 5-CLB in PB and CM; format: physicochemical; conditions: for ΦF / λmaxAb / λmaxFl: 25° C.
Description: The spectral properties of the dye RD and its conjugates IRD-CLB and 5-CLB were measured at the concentrations (c) of 0.6 μM in 10 mM phosphate buffer pH 7.5 (PB) and cell medium pH 7.5 (CM), both containing 20% of acetonitrile (ACN) to improve solubility of the compounds.
Table 2 presents the absorption (λmaxAb) and emission (λmaxFl) maxima, extinction coefficients (ε) and fluorescence quantum yields (ΦF) of the RD dye and IRD-CLB and 5-CLB conjugates measured at 25° C. in 10 mM phosphate buffer pH 7.5 (PB) and cell medium pH 7.5 (CM).
as §1
Absorption spectra were recorded on a Jasco V-730 UV-Vis spectrophotometer and the fluorescence spectra were measured on Edinburgh FS5 spectrofluorometer. The absorption and fluorescence spectra and the quantum yields (ΦF) were measured in a 1-cm quartz cell at ˜0.5 μM dye concentrations in PB 10 mmol buffer pH 7.4 at 25° C. and cell medium pH 7.4. Excitation wavelength was 720 nm and 532 nm. The recorded fluorescence spectra were corrected using the wavelength-dependent instrument sensitivity coefficients. Absorption and emission maxima were measured with accuracy of ±0.3 nm and ±0.5 nm, respectively, and rounded. For the determination of the quantum yields, the integrated relative intensities were measured versus ICG™ in methanol as the reference (ΦF=0.043) and Cy3™ in PBS (ΦF=0.043). The absorbance values measured for the samples and the reference at the excitation wavelength were 0.04-0.06 measured in a 1-cm cell. The absolute quantum yields were calculated according to Equation 1.

[4] = Drug (Aza) release from Aza-Flu conjugates in PB, CM and 1.25% LH by time-dependent fluorescence spectra
[5] = cell medium (CM), in CM with 20% acetonitrile

Structure (SMILES): C[C@@H](O)[C@H](NC(=O)[C@@H]1CSSC[C@H](NC(=O)[C@@H](Cc2ccccc2)NC(=O)CCCNC(=O)CCCCCN2/C(=C/C=C3\CCCC(/C=C/C4=[N+](C)c5ccccc5C4(C)C)=C3OC(=O)CCCc3ccc(N(CCCl)CCCl)cc3)C(C)(C)c3ccccc32)C(=O)N[C@@H](Cc2ccccc2)C(=O)N[C@H](Cc2c[nH]c3ccccc23)C(=O)N[C@@H](CCCCN)C(=O)N[C@@H]([C@@H](C)O)C(=O)N1)C(N)=O [5-CLB]
- Fluorescence of 5-CLB accumulated in the cells in presence of free Oct (SSTRs): decreased proportionally to the Oct concentration
- half-life ([1]; PB (10 mmol buffer), in PB with 20% acetonitrile): ~2.4 h
- half-life [1, 5]: ~2 h
- half-life at 0.6 μM [1, 5]: ~2 h
- growth inhibition (Panc-1): dramatically higher growth inhibition compared to CLB or OctA
- half-life at 10 μM [2]: ~3.33 h
- ΦF ([3]; CM:ACN (4:1, v/v)): 5.9%
- λmaxAb ([3]; CM:ACN (4:1, v/v)): 787 nm
- λmaxFl ([3]; CM:ACN (4:1, v/v)): 805 nm
- emission when excited at 532 nm ([3]; PB and CM): no detectable emission
- ΦF ([3]; PB:ACN (4:1, v/v)): 1.5%
- λmaxFl ([3]; PB:ACN (4:1, v/v)): 796 nm
- λmaxAb ([3]; PB:ACN (4:1, v/v), c=0.6 μM): 783 nm

Structure (SMILES): COc1cc(C2c3[nH]c4ccccc4c3CC3COC(=O)N32)cc(OC)c1O/C=C/C(=O)Oc1ccc2c(c1)Oc1cc(OCC(=O)O)ccc1C21OC(=O)c2ccccc21 (stereo not drawn) [Aza-Flu-COOH, (E)-2-((3′-((3-(2,6-dimethoxy-4-(3-oxo-1,3,5,6,11,11a-hexahydrooxazolo[3′,4′:1,6]pyrido[3,4-b]indol-5-yl)phenoxy)acryloyl)oxy)-3-oxo-3H-spiro [isobenzofuran-1,9′-xanthen]-6′-yl)oxy) acetic acid]
- half-life [4]: ~1.8 h
